Measured values: patent US20110294738A1, “PTHR1 RECEPTOR COMPOUNDS” (priority 2008, published 2011)
* marks the point of attachment. Palmitoyl = CCCCCCCCCCCCCCCC(=O)*

molecular target: PTHR1 receptor
Sequence (P25961 whole entry): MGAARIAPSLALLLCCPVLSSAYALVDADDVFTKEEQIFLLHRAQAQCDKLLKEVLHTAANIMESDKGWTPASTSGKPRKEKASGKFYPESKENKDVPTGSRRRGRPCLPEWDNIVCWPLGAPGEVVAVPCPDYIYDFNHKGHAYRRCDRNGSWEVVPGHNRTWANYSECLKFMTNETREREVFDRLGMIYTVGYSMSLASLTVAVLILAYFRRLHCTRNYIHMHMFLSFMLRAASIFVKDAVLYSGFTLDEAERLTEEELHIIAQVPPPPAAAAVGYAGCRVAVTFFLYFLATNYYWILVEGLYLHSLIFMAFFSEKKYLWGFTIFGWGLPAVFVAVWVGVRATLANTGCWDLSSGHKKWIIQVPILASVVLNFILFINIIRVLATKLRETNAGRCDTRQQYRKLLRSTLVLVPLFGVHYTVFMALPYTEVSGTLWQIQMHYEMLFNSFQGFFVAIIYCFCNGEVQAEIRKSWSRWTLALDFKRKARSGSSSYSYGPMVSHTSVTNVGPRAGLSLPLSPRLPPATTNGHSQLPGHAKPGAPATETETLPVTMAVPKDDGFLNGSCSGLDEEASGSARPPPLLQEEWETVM

Fold Shift of EC50 | Inhibition of Maximal Response | Binder
1.5 fold | 28.3% | Palmitoyl-LYLHSLIFMAFFSEKK-NH2 (not fully specified) [Compound 40]
0.7 fold | 29.2% | Palmitoyl-GGYFRRLHSTRNYIH-NH2 (SMILES CCCCCCCCCCCCCCCC(=O)NCC(=O)NCC(=O)N[C@@H](Cc1ccc(O)cc1)C(=O)N[C@@H](Cc1ccccc1)C(=O)N[C@@H](CCCNC(=N)N)C(=O)N[C@@H](CCCNC(=N)N)C(=O)N[C@@H](CC(C)C)C(=O)N[C@@H](Cc1c[nH]cn1)C(=O)N[C@@H](CO)C(=O)N[C@H](C(=O)N[C@@H](CCCNC(=N)N)C(=O)N[C@@H](CC(N)=O)C(=O)N[C@@H](Cc1ccc(O)cc1)C(=O)N[C@H](C(=O)N[C@@H](Cc1c[nH]cn1)C(N)=O)[C@@H](C)CC)[C@@H](C)O) [Compound 13]
0.6 fold | 26.1% | Palmitoyl-NIVRVLATKLRE-NH2 (SMILES CCCCCCCCCCCCCCCC(=O)N[C@@H](CC(N)=O)C(=O)N[C@H](C(=O)N[C@H](C(=O)N[C@@H](CCCNC(=N)N)C(=O)N[C@H](C(=O)N[C@@H](CC(C)C)C(=O)N[C@@H](C)C(=O)N[C@H](C(=O)N[C@@H](CCCCN)C(=O)N[C@@H](CC(C)C)C(=O)N[C@@H](CCCNC(=N)N)C(=O)N[C@@H](CCC(=O)O)C(N)=O)[C@@H](C)O)C(C)C)C(C)C)[C@@H](C)CC) [Compound 55]
1.9 fold | -24.9% | Palmitoyl-RRLHSTRNYIH-NH2 (SMILES CCCCCCCCCCCCCCCC(=O)N[C@@H](CCCNC(=N)N)C(=O)N[C@@H](CCCNC(=N)N)C(=O)N[C@@H](CC(C)C)C(=O)N[C@@H](Cc1c[nH]cn1)C(=O)N[C@@H](CO)C(=O)N[C@H](C(=O)N[C@@H](CCCNC(=N)N)C(=O)N[C@@H](CC(N)=O)C(=O)N[C@@H](Cc1ccc(O)cc1)C(=O)N[C@H](C(=O)N[C@@H](Cc1c[nH]cn1)C(N)=O)[C@@H](C)CC)[C@@H](C)O) [Compound 2]
0.7 fold | 15.2% | Palmitoyl-LAYFRRLHSTRN-NH2 (SMILES CCCCCCCCCCCCCCCC(=O)N[C@@H](CC(C)C)C(=O)N[C@@H](C)C(=O)N[C@@H](Cc1ccc(O)cc1)C(=O)N[C@@H](Cc1ccccc1)C(=O)N[C@@H](CCCNC(=N)N)C(=O)N[C@@H](CCCNC(=N)N)C(=O)N[C@@H](CC(C)C)C(=O)N[C@@H](Cc1c[nH]cn1)C(=O)N[C@@H](CO)C(=O)N[C@H](C(=O)N[C@@H](CCCNC(=N)N)C(=O)N[C@@H](CC(N)=O)C(N)=O)[C@@H](C)O) [Compound 14]
0.7 fold | 17.5% | Palmitoyl-NIVRVLATKLRETNAGR-NH2 (SMILES CCCCCCCCCCCCCCCC(=O)N[C@@H](CC(N)=O)C(=O)N[C@H](C(=O)N[C@H](C(=O)N[C@@H](CCCNC(=N)N)C(=O)N[C@H](C(=O)N[C@@H](CC(C)C)C(=O)N[C@@H](C)C(=O)N[C@H](C(=O)N[C@@H](CCCCN)C(=O)N[C@@H](CC(C)C)C(=O)N[C@@H](CCCNC(=N)N)C(=O)N[C@@H](CCC(=O)O)C(=O)N[C@H](C(=O)N[C@@H](CC(N)=O)C(=O)N[C@@H](C)C(=O)NCC(=O)N[C@@H](CCCNC(=N)N)C(N)=O)[C@@H](C)O)[C@@H](C)O)C(C)C)C(C)C)[C@@H](C)CC) [Compound 54]
